This passage reports stoichiometry N results from publication PMC4923907.

The target in this experiment is GG-SpaA E269A mutant, residues 35-302 (Lactobacillus rhamnosus GG (ATCC 53103)). In words: SEC; size-exclusion chromatography of purified E269A protein, Sephacryl S-200 26/60, 20 mM Tris pH 7.5, 150 mM NaCl, 1 mM EDTA; two forms recovered, trimeric (E1) and monomeric (E2). On the technique in general: SEC sorts molecules by how far they enter the pores of the column.

“GG-SpaA E269A mutant, residues 35-302 (domain or fragment)” gave a stoichiometry N of 3.

Usually stoichiometry N stands for a count of units in the complex or per binding partner.
